In general, Km refers to the substrate concentration at which the rate is half of its maximum. What is called kcat is the number of substrate molecules converted per active site and unit of time at saturation.

What all share (assay): initial rates by RP-HPLC, Michaelis-Menten fit
Substrate in series [1]: O=C(O)c1ccc(C(=O)OCCOC(=O)c2ccc(C(=O)OCCOC(=O)c3ccc(C(=O)O)cc3)cc2)cc1
In kind it is biochemical, Thermobifida fusca. The conditions noted are these: 50 °C, 10 min, 0-2 mM substrate, 0.01-0.5 μM enzyme. The source says:
(§1) initial rates by RP-HPLC, Michaelis-Menten fit on TfC

Substrate in series [2]: O=C(O)c1ccc(C(=O)OCCOC(=O)c2ccc(C(=O)OCCO)cc2)cc1
The format is biochemical, Thermobifida fusca. The conditions noted are these: 50 °C, 10 min, 0-2 mM substrate, 0.01-0.5 μM enzyme.
From the text: as §1

Substrate in series [3]: O=C(O)c1ccc(C(=O)OCCO)cc1
In kind it is biochemical, Thermobifida fusca. The conditions noted are these: 50 °C, 2 h, 0-2 mM substrate, 0.01-0.5 μM enzyme.
From the text: as §1

Substrate in series [4]: O=C(OCCO)c1ccc(C(=O)OCCO)cc1
The format is biochemical, Thermobifida fusca. The settings on record: 50 °C, 10 min, 0-2 mM substrate, 0.01-0.5 μM enzyme.
From the text: as §1

Substrate in series [5]: O=C(O)c1ccc(C(=O)OCCOC(=O)c2ccc(C(=O)OCCOC(=O)c3ccc(C(=O)O)cc3)cc2)cc1
The format is biochemical, unidentified prokaryotic organism. The conditions noted are these: 50 °C, 10 min, 0-2 mM substrate, 0.01-0.5 μM enzyme. The source says:
(§2) initial rates by RP-HPLC, Michaelis-Menten fit on LCC

Substrate in series [6]: O=C(O)c1ccc(C(=O)OCCOC(=O)c2ccc(C(=O)OCCO)cc2)cc1
The format is biochemical, unidentified prokaryotic organism. The conditions noted are these: 50 °C, 10 min, 0-2 mM substrate, 0.01-0.5 μM enzyme.
From the text: as §2

Substrate in series [7]: O=C(O)c1ccc(C(=O)OCCO)cc1
In kind it is biochemical, unidentified prokaryotic organism. The settings on record: 50 °C, 2 h, 0-2 mM substrate, 0.01-0.5 μM enzyme.
From the text: as §2

Substrate in series [8]: O=C(OCCO)c1ccc(C(=O)OCCO)cc1
In kind it is biochemical, unidentified prokaryotic organism. The settings on record: 50 °C, 10 min, 0-2 mM substrate, 0.01-0.5 μM enzyme.
From the text: as §2

Substrate in series [9]: O=C(O)c1ccc(C(=O)OCCOC(=O)c2ccc(C(=O)OCCOC(=O)c3ccc(C(=O)O)cc3)cc2)cc1
The format is biochemical, Mycothermus thermophilus. The settings on record: 50 °C, 10 min, 0-2 mM substrate, 0.01-0.5 μM enzyme. The source says:
(§3) initial rates by RP-HPLC, Michaelis-Menten fit on HiC

Substrate in series [10]: O=C(O)c1ccc(C(=O)OCCOC(=O)c2ccc(C(=O)OCCO)cc2)cc1
In kind it is biochemical, Mycothermus thermophilus. The conditions noted are these: 50 °C, 10 min, 0-2 mM substrate, 0.01-0.5 μM enzyme.
From the text: as §3

B1: TfC (Thermobifida fusca YX) (protein)
chain: ANPYERGPNPTDALLEASSGPFSVSEENVSRLSASGFGGGTIYYPRENNTYGAVAISPGYTGTEASIAWLGERIASHGFVVITIDTITTLDQPDSRAEQLNAALNHMINRASSTVRSRIDSSRLAVMGHSMGGGGTLRLASQRPDLKAAIPLTPWHLNKNWSSVTVPTLIIGADLDTIAPVATHAKPFYNSLPSSISKAYLELDGATHFAPNIPNKIIGKYSVAWLKRFVDNDTRYTQFLCPGPRDGLFGEVEEYRSTCPF
B1: the Km in series [1] worked out at 170 ± 38 µM; in series [2], 170 ± 16 µM; in [3], 3800 ± 91 µM; in [4] it was 230 ± 67 µM. Also, the kcat is 62 ± 7.3 s⁻¹ in series [1], 11 ± 0.35 s⁻¹ in [2] and 1.1 ± 0.12 s⁻¹ in [4].

B2: LCC (unidentified prokaryotic organism) (protein)
chain: QSNPYQRGPNPTRSALTADGPFSVATYTVSRLSVSGFGGGVIYYPTGTSLTFGGIAMSPGYTADASSLAWLGRRLASHGFVVLVINTNSRFDYPDSRASQLSAALNYLRTSSPSAVRARLDANRLAVAGHSMGGGGTLRIAEQNPSLKAAVPLTPWHTDKTFNTSVPVLIVGAEADTVAPVSQHAIPFYQNLPSTTPKVYVELDNASHFAPNSNNAAISVYTISWMKLWVDNDTRYRQFLCNVNDPALSDFRTNNRHCQ
notes: heterologously expressed and purified
For B2, the Km in series [5] was 790 ± 410 µM; in series [6] it was 120 ± 35 µM; in series [7] it was 1200 ± 130 µM; in [8], 960 ± 160 µM. Also, the kcat in [5] was 300 ± 122 s⁻¹; in series [6], 21 ± 1.7 s⁻¹; in [7] it was 0.048 ± 0.0033 s⁻¹; in series [8], 6.2 ± 0.62 s⁻¹.

B3: HiC (Mycothermus thermophilus) (protein)
chain: QLGAIENGLESGSANACPDAILIFARGSTEPGNMGITVGPALANGLESHIRNIWIQGVGGPYDAALATNFLPRGTSQANIDEGKRLFALANQKCPNTPVVAGGYSQGAALIAAAVSELSGAVKEQVKGVALFGYTQNLQNRGGIPNYPRERTKVFCNVGDAVCTGTLIITPAHLSYTIEARGEAARFLRDRIRA
For B3, in series [9], the Km was determined as 89 ± 21 µM and the kcat is 24 ± 2.9 s⁻¹. Also, in [10], the Km is 77 ± 9.1 µM and the kcat is 2.9 ± 0.098 s⁻¹.

(Values after publication PMC10108200, “Reaction Pathways for the Enzymatic Degradation of Poly(Ethylene Terephthalate): What Characterizes an Efficient PET‐Hydrolase?” (Chembiochem, 2022).)
